In patent US8865654B2, “Eye drops” (Santen Pharmaceutical Co., Ltd., priority 2009, dated 2014):
No end group written: not given here.

Experiment: Stability test of eye drop (residual ratio by HPLC after storage at 40° C.)
Format: physicochemical
Conditions: eye drop SSSR acetate 0.003% + FGLM hydrochloride 0.05% (w/v)
Method: Each sample (100 mL, eye drop) containing the SSSR acetate at 0.003% (w/v) and the FGLM hydrochloride at 0.05% (w/v) was prepared at a pH in a range of 2.5 to 7.0 and stored at 40° C. The concentrations of the SSSR and the FGLM were measured by the HPLC method after 2 months storage, 3 months storage, and 6 months storage, and the residual ratios of the SSSR and the FGLM were determined, respectively.

Substance: Phe-Gly-Leu-Met-NH2 (FGLM-NH2) [tetrapeptide at the C-terminal of Substance P, used as hydrochloride]
- Residual ratio of FGLM (pH 2.5, 40° C., 2 months): 79%
- Residual ratio of FGLM (pH 2.5, 40° C., 3 months): 72%
- Residual ratio of FGLM (pH 2.5, 40° C., 6 months): 54%
- Residual ratio of FGLM (pH 3.0, 40° C., 2 months): 91%
- Residual ratio of FGLM (pH 3.0, 40° C., 3 months): 89%
- Residual ratio of FGLM (pH 3.0, 40° C., 6 months): 79%
- Residual ratio of FGLM (pH 3.5, 40° C., 2 months): 95%
- Residual ratio of FGLM (pH 3.5, 40° C., 3 months): 94%
- Residual ratio of FGLM (pH 3.5, 40° C., 6 months): 90%
- Residual ratio of FGLM (pH 4.0, 40° C., 2 months): 96%
- Residual ratio of FGLM (pH 4.0, 40° C., 3 months): 96%
- Residual ratio of FGLM (pH 4.0, 40° C., 6 months): 94%
- Residual ratio of FGLM (pH 4.5, 40° C., 2 months): 97%
- Residual ratio of FGLM (pH 4.5, 40° C., 3 months): 97%
- Residual ratio of FGLM (pH 4.5, 40° C., 6 months): 96%
- Residual ratio of FGLM (pH 5.0, 40° C., 2 months): 97%
- Residual ratio of FGLM (pH 5.0, 40° C., 3 months): 97%
- Residual ratio of FGLM (pH 5.0, 40° C., 6 months): 97%
- Residual ratio of FGLM (pH 5.5, 40° C., 2 months): 97%
- Residual ratio of FGLM (pH 5.5, 40° C., 3 months): 97%
- Residual ratio of FGLM (pH 5.5, 40° C., 6 months): 96%
- Residual ratio of FGLM (pH 6.0, 40° C., 2 months): 96%
- Residual ratio of FGLM (pH 6.0, 40° C., 3 months): 96%
- Residual ratio of FGLM (pH 6.0, 40° C., 6 months): 95%
- Residual ratio of FGLM (pH 6.5, 40° C., 2 months): 95%
- Residual ratio of FGLM (pH 6.5, 40° C., 3 months): 95%
- Residual ratio of FGLM (pH 6.5, 40° C., 6 months): 93%
- Residual ratio of FGLM (pH 7.0, 40° C., 2 months): 94%
- Residual ratio of FGLM (pH 7.0, 40° C., 3 months): 93%
- Residual ratio of FGLM (pH 7.0, 40° C., 6 months): 90%

Substance: Ser-Ser-Ser-Arg (SSSR; printed: Ser-Ser-Ser-Arg) [partial peptide of insulin-like growth factor I, used as acetate]
- Residual ratio of SSSR (pH 2.5, 40° C., 2 months): 100%
- Residual ratio of SSSR (pH 2.5, 40° C., 3 months): 100%
- Residual ratio of SSSR (pH 2.5, 40° C., 6 months): 100%
- Residual ratio of SSSR (pH 3.0, 40° C., 2 months): 99%
- Residual ratio of SSSR (pH 3.0, 40° C., 3 months): 96%
- Residual ratio of SSSR (pH 3.0, 40° C., 6 months): 98%
- Residual ratio of SSSR (pH 3.5, 40° C., 2 months): 99%
- Residual ratio of SSSR (pH 3.5, 40° C., 3 months): 96%
- Residual ratio of SSSR (pH 3.5, 40° C., 6 months): 93%
- Residual ratio of SSSR (pH 4.0, 40° C., 2 months): 98%
- Residual ratio of SSSR (pH 4.0, 40° C., 3 months): 97%
- Residual ratio of SSSR (pH 4.0, 40° C., 6 months): 92%
- Residual ratio of SSSR (pH 4.5, 40° C., 2 months): 97%
- Residual ratio of SSSR (pH 4.5, 40° C., 3 months): 97%
- Residual ratio of SSSR (pH 4.5, 40° C., 6 months): 89%
- Residual ratio of SSSR (pH 5.0, 40° C., 2 months): 97%
- Residual ratio of SSSR (pH 5.0, 40° C., 3 months): 87%
- Residual ratio of SSSR (pH 5.0, 40° C., 6 months): 81%
- Residual ratio of SSSR (pH 5.5, 40° C., 2 months): 94%
- Residual ratio of SSSR (pH 5.5, 40° C., 3 months): 86%
- Residual ratio of SSSR (pH 5.5, 40° C., 6 months): 80%
- Residual ratio of SSSR (pH 6.0, 40° C., 2 months): 90%
- Residual ratio of SSSR (pH 6.0, 40° C., 3 months): 77%
- Residual ratio of SSSR (pH 6.0, 40° C., 6 months): 68%
- Residual ratio of SSSR (pH 6.5, 40° C., 2 months): 84%
- Residual ratio of SSSR (pH 6.5, 40° C., 3 months): 67%
- Residual ratio of SSSR (pH 6.5, 40° C., 6 months): 51%
- Residual ratio of SSSR (pH 7.0, 40° C., 2 months): 70%
- Residual ratio of SSSR (pH 7.0, 40° C., 3 months): 51%
- Residual ratio of SSSR (pH 7.0, 40° C., 6 months): 35%
